Results on three proteins are retold here after doi:10.1101/2025.03.18.644018v1.

Substrate in data set [1]: CC(=O)C(=O)O
Description: purified protein. It is filed as biochemical, Glycine max. Conditions: reverse reaction, NaHCO3, NADPH, MgCl2, pH 6.5, 30°C.

Substrate in data set [2]: O=C(O)C[C@H](O)C(=O)O
Put plainly: purified protein. Conditions: equimolar mixture, forward, saturating NAD, MnCl2, pH 6.5, 30°C.

B1: NADP-ME1.1 (Glycine max) (protein)
chain: SMTPSSSSSSRSGDRNGSVVMETPLKELKKESTVADVDDNAISAGGPQDVYGEDRATEDHFVTPWSVSVASGYTLLRDPHFNKGLAFTEDERDAHYLRGLLPPSVIPQETQVKKMIQHVRQYQVPLQKYMAMMDLQERNERLFYKLLIDHVEELLPVVYTPTVGEACQKYGSIFMHPQGLYISLKEKGKIREVLRNWPEKNIQVIVVTDGERILGLGDLGCQGMGIPVGKLSLYTALGGVRPSACLPITIDVGTNNEKLLNDELYIGLKQRRATGQEYAELMHEFMTAVKQTYGEKVLIQFEDFANHNAFNLLEKYRSTHLVFNDDIQGTASVVLAGLVASLKLVGGNLADHRFLFLGAGEAGTGIAELIALETSKQTNAPLEEVRKNIWLVDSKGLIVSSRKDSLQHFKKPWAHEHEPVKNLLDAVNKIKPTVLIGTSGQGRTFTKEVIEAMASINKRPIILSLSNPTSQSECTAEEAYKWSQGRAIFASGSPFPPVEYEGKVFVPGQANNAYIFPGFGLGLIMSGTIRVHDDLLLAASEALAAQVSQENFDKGLIYPPFTNIRKISAHIAANVAAKAYELGLATRLPQPKDLVKFAESCMYTPAYRSYR
Consider B1, for which, in data set [1], the K0.5 is 5.1 ± 0.5 mM; the kcat (as a rule, the number of substrate molecules converted per active site and unit of time at saturation) came out at 202.4 ± 6.9 s⁻¹.

B2: NAD-ME1 + NAD-ME2.3 (Glycine max) (protein)
chain 1: PSIVHKRSLDILHDPWFNKGTAFSMTERDRLDLRGLLPPNVMSPDLQIERFMVDLKRLEVQARDGPSDPNALAKWRILNRLHDRNETMYYKVLIAKIEEYAPIVYTPTVGLVCQNYSGLFRRPRGMYFSAEDRGEMMSMVYNWPAEQVDMIVVTDGSRILGLGDLGVQGIGIAIGKLDLYVAAAGINPQRVLPVMIDVGTNNEKLLEDPLYLGLQQHRLDGDDYLAVVDEFMEAVFTRWPNVIVQFEDFQSKWAFKLLQRYRNTYRMFNDDVQGTAGVAIAGLLGAVRAQGRPLIDFPKQKIVVAGAGSAGIGVLNAARKTMARMLGNNEVAFESAKSQFWVVDAQGLITEGRENIDPDALPFARNLKEMDRQGLREGASLVEVVKQVKPDVLLGLSAVGGLFSKEVLEALKGSTSTRPAIFAMSNPTKNAECTAEEAFSILGDNIIFASGSPFSNVDLGNGHIGHCNQGNNMYLFPGIGLGTLLSGARIVSDGMLQAAAERLATYMSEEEVLKGIIFPSTSRIRDITKQVATAVIKEAVEEDLAEGYHGMDARELQKLSEDEIAEYVQNNMWSPEYPTLVYKKE
chain 2: CIVHKRGADILHDPWFNKDTGFPLTERDRLGLRGLLPPRVISFEQQYDRFMNSFRSLENNTQGQPDKVVSLAKWRILNRLHDRNETLYYRVLIDNIKEFAPIIYTPTVGLVCQNYSGLFRRPRGMYFSAKDKGEMMSMIYNWPAHEVDMIVLTDGSRILGLGDLGVQGIGIPIGKLDVYVAAAGINPQRILPVMLDVGTNNQKLLEDRLYLGLRQPRLEGEEYLSIVDEFMEAVHARWPKAIVQFEDFQMKWAFETLKRYQKRFCMFNDDIQGTAGVALAGILGTVRAQGRPLTDFVNQKIVVVGAGSAGLGVLKMAIQTVAKISGCSELAAKSQFYLIDKDGLVTTERNSLDPAAAPFAKNPRDIEGLTEGASIIEVVKKIRPHVLLGLSGVGGIFNEEVLKAMRESVSTKPAIFAMSNPTMNAECTSIDAFKHAGENIVFASGSPFENVDLGNGKVGHVNQANNMYLFPGIGLGTLLSGAHLITDGMLQAASECLASYMAEEDILKGILYPSVDSIRDVTAEVGAAVLRAAVEEELAEGHGDVGPKELSHMSKDEAVEYVRSNMWYPVYSPLVHEK
B2: in data set [2], the K0.5 worked out at 0.2 ± 0.1 mM and the kcat amounted to 338.3 ± 15.8 s⁻¹.

B3: NAD-ME1 + NAD-ME2.4 (Glycine max) (protein)
chain 1: PSIVHKRSLDILHDPWFNKGTAFSMTERDRLDLRGLLPPNVMSPDLQIERFMVDLKRLEVQARDGPSDPNALAKWRILNRLHDRNETMYYKVLIAKIEEYAPIVYTPTVGLVCQNYSGLFRRPRGMYFSAEDRGEMMSMVYNWPAEQVDMIVVTDGSRILGLGDLGVQGIGIAIGKLDLYVAAAGINPQRVLPVMIDVGTNNEKLLEDPLYLGLQQHRLDGDDYLAVVDEFMEAVFTRWPNVIVQFEDFQSKWAFKLLQRYRNTYRMFNDDVQGTAGVAIAGLLGAVRAQGRPLIDFPKQKIVVAGAGSAGIGVLNAARKTMARMLGNNEVAFESAKSQFWVVDAQGLITEGRENIDPDALPFARNLKEMDRQGLREGASLVEVVKQVKPDVLLGLSAVGGLFSKEVLEALKGSTSTRPAIFAMSNPTKNAECTAEEAFSILGDNIIFASGSPFSNVDLGNGHIGHCNQGNNMYLFPGIGLGTLLSGARIVSDGMLQAAAERLATYMSEEEVLKGIIFPSTSRIRDITKQVATAVIKEAVEEDLAEGYHGMDARELQKLSEDEIAEYVQNNMWSPEYPTLVYKKE
chain 2: CIVHKRGADILHDPWFNKDTGFPLTERDRLGLRGLLPPRVISFEQQYDRFMNSFRSLENNTQGQPDKVVSLAKWRILNRLHDRNETLYYRVLIDNIKEFAPIIYTPTVGLVCQNYSGLFRRPRGMYFSAKDKGEMMSMIYNWPAHEVDMIVLTDGSRILGLGDLGVQGIGIPIGKLDVYVAAAGINPQRILPVMLDVGTNNQKLLEDRLYLGLRQPRLEGEEYLSIIDEFMEAVHARWPKAIVQFEDFQMKWAFETLKRYQKKFCMFNDDIQGTAGVALAGLLGTVRAQGRPLTDFVNQKIVVVGAGSAGLGVLKMAIQAVAKISGCSELAAKSQFYLIDKDGLVTTERNNLDPAAAPFAKNPRDIEGLTEGASIIEVVKKIRPHVLLGLSGVGGIFNEEVLKAMRESVSTKPAIFAMSNPTMNAECTAIDAFKHAGENMVFASGSPFENVDLGNGIVGHVNQANNMYLFPGIGLGTLLSGAHLITDGMLQAAAECLASYMAEEDILKGILYPSVDSIRDVTAEVGAAVLRAAVEEELAEGNGDVGPKELSHMSKDETVEYVRSNMWYPVYSPLVHEK
For B3, in data set [2], the K0.5 is recorded as 0.6 ± 0.2 mM and the kcat is 393.6 ± 63.8 s⁻¹.
